# From IntAct's records for PubMed 9502724
# B1: Mothers against decapentaplegic homolog (Drosophila melanogaster (Fruit fly)), O62609 (parent)
# chain: MGGGSGACPPAHMYGAVAPQDIIVRDMVQMPPPPSNAPTSADACLSIVHSLMCHRQGGESEGFAKRAIESLVKKLKEKRDELDSLITAITTNGAHPSKCVTIQRTLDGRLQVAGRKGFPHVIYARIWRWPDLHKNELKHVKYCAFAFDLKCDSVCVNPYHYERVVSPGIDLSGLSLQSGPSRLVKDEYSAGPLVGSMDIDGNDIGTIQHHPTQMVGPGGYGYPQGPSEYVGDANPMSAMFPTGRTIPKIEPQDGVAGSRGSWMVPPPPRLGQPPQQQQQQPQQQTPQPTQQQQAQSQAAAHSLPVPHGMPGMPGPMNPGPVMAPPPPPQQAQNPQGNGVHHTQANSPTDPASALAMQQQQQQQQQQQQQQQQQQQQSGGVPNGSVNAGGGAAAGGQYYGQPPPVSQMQGAGGGGTSVAPSVHAQQNGYVSQPGSAGSAPVGGGGVFGTAQPTPQQPQQPPTGVQANTGSAGAQAGAGGGAAGTWTGPNTLTYTQSMQPPDPRSLPGGFWNSSLSGDLGSPQQTPPQQQQQQQQPRLLSRQPPPEYWCSIAYFELDTQVGETFKVPSAKPNVIIDGYVDPSGGNRFCLGALSNVHRTEQSERARLHIGKGVQLDLRGEGDVWLRCLSDNSVFVQSYYLDREAGRTPGDAVHKIYPAACIKVFDLRQCHQQMHSLATNAQAAAAAQAAAVAGVANQQMGGGGRSMTAAAGIGVDDLRRLCILRLSFVKGWGPDYPRQSIKETPCWIEVHLHRALQLLDEVLHAMPIDGPRAAA
# B2: Protein mothers against dpp (Drosophila melanogaster (Fruit fly)), P42003 (parent)
# chain: MDTDDVESNTSSAMSTLGSLFSFTSPAVKKLLGWKQGDEEEKWAEKAVDSLVKKLKKRKGAIEELERALSCPGQPSKCVTIPRSLDGRLQVSHRKGLPHVIYCRVWRWPDLQSHHELKPLELCQYPFSAKQKEVCINPYHYKRVESPVLPPVLVPRHSEFAPGHSMLQFNHVAEPSMPHNVSYSNSGFNSHSLSTSNTSVGSPSSVNSNPNSPYDSLAGTPPPAYSPSEDGNSNNPNDGGQLLDAQMGDVAQVSYSEPAFWASIAYYELNCRVGEVFHCNNNSVIVDGFTNPSNNSDRCCLGQLSNVNRNSTIENTRRHIGKGVHLYYVTGEVYAECLSDSAIFVQSRNCNYHHGFHPSTVCKIPPGCSLKIFNNQEFAQLLSQSVNNGFEAVYELTKMCTIRMSFVKGWGAEYHRQDVTSTPCWIEIHLHGPLQWLDKVLTQMGSPHNAISSVS
# Variants of: B1
# Details: with mad_drome Mad, P42003
row,effect of a mutation on the interaction,Variant
1,with no effect,C99S
2,disrupting interaction strength,G727D

# Variants of: B2
# Details: with Med, O62609
row,effect of a mutation on the interaction,Variant
1,disrupting interaction strength,S452A;S453A;S455A
